Data published in patent publication WO2015087187A1 (dated 2015).

T1: recombinant human SOST (rhSOST) (human, UniProt Q9BQB4 24-213)
T1 construct: Treated as one molecule; also called recombinant human SOST protein; human sclerostin
T1 sequence: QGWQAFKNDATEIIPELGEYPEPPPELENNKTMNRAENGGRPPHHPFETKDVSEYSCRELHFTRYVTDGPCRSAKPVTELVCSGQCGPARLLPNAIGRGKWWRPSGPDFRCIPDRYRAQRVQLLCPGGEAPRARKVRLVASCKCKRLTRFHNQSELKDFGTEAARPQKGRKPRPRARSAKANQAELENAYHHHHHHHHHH


Molecular target: T1, recombinant human SOST (rhSOST)
Assay: SPR Biacore T200, IgG captured via anti-human Fc, rhSOST analyte, 37 C

| Kd | koff | kon | Binder |
| --- | --- | --- | --- |
| 0.566 nM | 0.000741 s⁻¹ | 1.31e+06 M⁻¹ s⁻¹ | DM1 (antibody, V domains shown, also called mH10/mL4) VH: EVQLLESGGGLVQPGGSLRLSCAASGHTFSDYWMQWVRQAPGKGLEWVGAIYPGDGDTRYNQKFKDRFTISRDNSKNTLYLQMNSLRAEDTAVYYCARSMDYWGQGTLVTVSS VL: DIVMTQSPDSLAVSLGERATINCRASKTVDSYGNSFMHWFQQKPGQPPKLLIHHSSNLESGVPDRFSGSGSGTDFTLTISSLQAEDVAVYYCLQTIEHPYTFGQGTKLEIK |
| 0.193 nM | 0.000754 s⁻¹ | 3.91e+06 M⁻¹ s⁻¹ | DM5 (antibody, V domains shown, also called mH10/mL16) VH: EVQLLESGGGLVQPGGSLRLSCAASGHTFSDYWMQWVRQAPGKGLEWVGAIYPGDGDTRYNQKFKDRFTISRDNSKNTLYLQMNSLRAEDTAVYYCARSMDYWGQGTLVTVSS VL: DIVMTQSPDSLAVSLGERATINCRASKTVDSYGNSFMHWFQQKPGQPPKLLIYHSSNLESGVPDRFSGSGSGTDFTLTISSLQAEDVAVYYCLQTIEFPYTFGQGTKLEIK |
| < 0.0016 nM | < 2.8e-05 s⁻¹ | 1.72e+07 M⁻¹ s⁻¹ | DM13 (antibody, V domains shown, also called wt/mL2) VH: EVQLLESGGGLVQPGGSLRLSCAASGHTFTDYWMQWVRQAPGKGLEWIGAIYPGDGDTRYNQKFKDRFTISRDNSKNTLYLQMNSLRAEDTAVYYCARSMDYWGQGTLVTVSS VL: DIVMTQSPDSLAVSLGERATINCRASKTVDSYGNSFMHWFQQKPGQPPKLLIYHSSNLESGVPDRFSGSGSGTDFTLTISSLQAEDVAVYYCLQTIEDPYTFGQGTKLEIK |
| 0.044 nM | 0.000207 s⁻¹ | 4.7e+06 M⁻¹ s⁻¹ | DM17 (antibody, V domains shown, also called wt/mL6) VH: EVQLLESGGGLVQPGGSLRLSCAASGHTFTDYWMQWVRQAPGKGLEWIGAIYPGDGDTRYNQKFKDRFTISRDNSKNTLYLQMNSLRAEDTAVYYCARSMDYWGQGTLVTVSS VL: DIVMTQSPDSLAVSLGERATINCRASKTVDSYGNSFMHWFQQKPGQPPKLLIHHSSNLESGVPDRFSGSGSGTDFTLTISSLQAEDVAVYYCLQTIEDSYTFGQGTKLEIK |
| 0.08 nM | 0.000297 s⁻¹ | 3.72e+06 M⁻¹ s⁻¹ | DM15 (antibody, V domains shown, also called wt/mL4) VH: EVQLLESGGGLVQPGGSLRLSCAASGHTFTDYWMQWVRQAPGKGLEWIGAIYPGDGDTRYNQKFKDRFTISRDNSKNTLYLQMNSLRAEDTAVYYCARSMDYWGQGTLVTVSS VL: DIVMTQSPDSLAVSLGERATINCRASKTVDSYGNSFMHWFQQKPGQPPKLLIHHSSNLESGVPDRFSGSGSGTDFTLTISSLQAEDVAVYYCLQTIEHPYTFGQGTKLEIK |
| 1.84 nM | 0.00285 s⁻¹ | 1.55e+06 M⁻¹ s⁻¹ | DM3 (antibody, V domains shown, also called mH10/mL15) VH: EVQLLESGGGLVQPGGSLRLSCAASGHTFSDYWMQWVRQAPGKGLEWVGAIYPGDGDTRYNQKFKDRFTISRDNSKNTLYLQMNSLRAEDTAVYYCARSMDYWGQGTLVTVSS VL: DIVMTQSPDSLAVSLGERATINCRASKTVDSYGNSFMHWYQQKPGQPPKLLIYHSSNLESGVPDRFSGSGSGTDFTLTISSLQAEDVAVYYCLQTIEHPYTFGQGTKLEIK |
| 0.096 nM | 0.000388 s⁻¹ | 4.06e+06 M⁻¹ s⁻¹ | DM19 (antibody, V domains shown, also called wt/mL10) VH: EVQLLESGGGLVQPGGSLRLSCAASGHTFTDYWMQWVRQAPGKGLEWIGAIYPGDGDTRYNQKFKDRFTISRDNSKNTLYLQMNSLRAEDTAVYYCARSMDYWGQGTLVTVSS VL: DIVMTQSPDSLAVSLGERATINCRASKTVDSYGNSFMHWFQQKPGQPPKLLIHHSSNLESGVPDRFSGSGSGTDFTLTISSLQAEDVAVYYCLQTIEFHYTFGQGTKLEIK |
| 2.32 nM | 0.00434 s⁻¹ | 1.87e+06 M⁻¹ s⁻¹ | DM9 (antibody, V domains shown, also called mH10/mL18) VH: EVQLLESGGGLVQPGGSLRLSCAASGHTFSDYWMQWVRQAPGKGLEWVGAIYPGDGDTRYNQKFKDRFTISRDNSKNTLYLQMNSLRAEDTAVYYCARSMDYWGQGTLVTVSS VL: DIVMTQSPDSLAVSLGERATINCRASKTVDSYGSNFMHWYQQKPGQPPKLLIYHSSNLESGVPDRFSGSGSGTDFTLTISSLQAEDVAVYYCLQTIEHPYTFGQGTKLEIK |
| < 0.0016 nM | < 2.8e-05 s⁻¹ | 1.7e+07 M⁻¹ s⁻¹ | DM11 (antibody, V domains shown, also called wt/wt) VH: EVQLLESGGGLVQPGGSLRLSCAASGHTFTDYWMQWVRQAPGKGLEWIGAIYPGDGDTRYNQKFKDRFTISRDNSKNTLYLQMNSLRAEDTAVYYCARSMDYWGQGTLVTVSS VL: DIVMTQSPDSLAVSLGERATINCRASKTVDSYGNSFMHWFQQKPGQPPKLLIHHSSNLESGVPDRFSGSGSGTDFTLTISSLQAEDVAVYYCLQTIEDPYTFGQGTKLEIK |
| 0.009 nM | 5.62e-05 s⁻¹ | 6.55e+06 M⁻¹ s⁻¹ | DM12 (antibody, V domains shown, also called wt/mL1) VH: EVQLLESGGGLVQPGGSLRLSCAASGHTFTDYWMQWVRQAPGKGLEWIGAIYPGDGDTRYNQKFKDRFTISRDNSKNTLYLQMNSLRAEDTAVYYCARSMDYWGQGTLVTVSS VL: DIVMTQSPDSLAVSLGERATINCRASKTVDSYGNSFMHWYQQKPGQPPKLLIHHSSNLESGVPDRFSGSGSGTDFTLTISSLQAEDVAVYYCLQTIEDPYTFGQGTKLEIK |
| 0.016 nM | 8.31e-05 s⁻¹ | 5.22e+06 M⁻¹ s⁻¹ | DM14 (antibody, V domains shown, also called wt/mL3) VH: EVQLLESGGGLVQPGGSLRLSCAASGHTFTDYWMQWVRQAPGKGLEWIGAIYPGDGDTRYNQKFKDRFTISRDNSKNTLYLQMNSLRAEDTAVYYCARSMDYWGQGTLVTVSS VL: DIVMTQSPDSLAVSLGERATINCRASKTVDSYGNSFMHWYQQKPGQPPKLLIYHSSNLESGVPDRFSGSGSGTDFTLTISSLQAEDVAVYYCLQTIEDPYTFGQGTKLEIK |
| 0.179 nM | 0.00104 s⁻¹ | 5.81e+06 M⁻¹ s⁻¹ | DM18 (antibody, V domains shown, also called wt/mL8) VH: EVQLLESGGGLVQPGGSLRLSCAASGHTFTDYWMQWVRQAPGKGLEWIGAIYPGDGDTRYNQKFKDRFTISRDNSKNTLYLQMNSLRAEDTAVYYCARSMDYWGQGTLVTVSS VL: DIVMTQSPDSLAVSLGERATINCRASKTVDSYGNSFMHWFQQKPGQPPKLLIHHSSNLESGVPDRFSGSGSGTDFTLTISSLQAEDVAVYYCLQTIDEPYTFGQGTKLEIK |
| 0.966 nM | 0.00402 s⁻¹ | 4.16e+06 M⁻¹ s⁻¹ | DM7 (antibody, V domains shown, also called mH11/mL14) VH: EVQLLESGGGLVQPGGSLRLSCAASGFTFSDYWMQWVRQAPGKGLEWVGAIYPGDGDTRYNQKFKDRFTISRDNSKNTLYLQMNSLRAEDTAVYYCARSMDYWGQGTLVTVSS VL: DIVMTQSPDSLAVSLGERATINCRASKTVDSYGNSFMHWFQQKPGQPPKLLIYHSSNLESGVPDRFSGSGSGTDFTLTISSLQAEDVAVYYCLQTIEHPYTFGQGTKLEIK |
| 0.207 nM | 0.000817 s⁻¹ | 3.94e+06 M⁻¹ s⁻¹ | DM16 (antibody, V domains shown, also called wt/mL5) VH: EVQLLESGGGLVQPGGSLRLSCAASGHTFTDYWMQWVRQAPGKGLEWIGAIYPGDGDTRYNQKFKDRFTISRDNSKNTLYLQMNSLRAEDTAVYYCARSMDYWGQGTLVTVSS VL: DIVMTQSPDSLAVSLGERATINCRASKTVDSYGNSFMHWFQQKPGQPPKLLIHHSSNLESGVPDRFSGSGSGTDFTLTISSLQAEDVAVYYCLQTIEDHYTFGQGTKLEIK |
| 2.93 nM | 0.007 s⁻¹ | 2.39e+06 M⁻¹ s⁻¹ | DM8 (antibody, V domains shown, also called mH11/mL17) VH: EVQLLESGGGLVQPGGSLRLSCAASGFTFSDYWMQWVRQAPGKGLEWVGAIYPGDGDTRYNQKFKDRFTISRDNSKNTLYLQMNSLRAEDTAVYYCARSMDYWGQGTLVTVSS VL: DIVMTQSPDSLAVSLGERATINCRASKTVDSYGNSFMHWYQQKPGQPPKLLIYHSSNLESGVPDRFSGSGSGTDFTLTISSLQAEDVAVYYCLQTIEFPYTFGQGTKLEIK |
| 0.015 nM | 0.00012 s⁻¹ | 7.83e+06 M⁻¹ s⁻¹ | DM20 (antibody, V domains shown, also called mH1/wt) VH: EVQLLESGGGLVQPGGSLRLSCAASGHTFSDYWMQWVRQAPGKGLEWIGAIYPGDGDTRYNQKFKDRFTISRDNSKNTLYLQMNSLRAEDTAVYYCARSMDYWGQGTLVTVSS VL: DIVMTQSPDSLAVSLGERATINCRASKTVDSYGNSFMHWFQQKPGQPPKLLIHHSSNLESGVPDRFSGSGSGTDFTLTISSLQAEDVAVYYCLQTIEDPYTFGQGTKLEIK |
| 0.015 nM | 0.000152 s⁻¹ | 1.04e+07 M⁻¹ s⁻¹ | DM22 (antibody, V domains shown, also called mH2/wt) VH: EVQLLESGGGLVQPGGSLRLSCAASGFTFTDYWMQWVRQAPGKGLEWIGAIYPGDGDTRYNQKFKDRFTISRDNSKNTLYLQMNSLRAEDTAVYYCARSMDYWGQGTLVTVSS VL: DIVMTQSPDSLAVSLGERATINCRASKTVDSYGNSFMHWFQQKPGQPPKLLIHHSSNLESGVPDRFSGSGSGTDFTLTISSLQAEDVAVYYCLQTIEDPYTFGQGTKLEIK |
| 0.321 nM | 0.000797 s⁻¹ | 2.48e+06 M⁻¹ s⁻¹ | DM2 (antibody, V domains shown, also called mH10/mL14) VH: EVQLLESGGGLVQPGGSLRLSCAASGHTFSDYWMQWVRQAPGKGLEWVGAIYPGDGDTRYNQKFKDRFTISRDNSKNTLYLQMNSLRAEDTAVYYCARSMDYWGQGTLVTVSS VL: DIVMTQSPDSLAVSLGERATINCRASKTVDSYGNSFMHWFQQKPGQPPKLLIYHSSNLESGVPDRFSGSGSGTDFTLTISSLQAEDVAVYYCLQTIEHPYTFGQGTKLEIK |
| 1.18 nM | 0.00251 s⁻¹ | 2.12e+06 M⁻¹ s⁻¹ | DM6 (antibody, V domains shown, also called mH10/mL17) VH: EVQLLESGGGLVQPGGSLRLSCAASGHTFSDYWMQWVRQAPGKGLEWVGAIYPGDGDTRYNQKFKDRFTISRDNSKNTLYLQMNSLRAEDTAVYYCARSMDYWGQGTLVTVSS VL: DIVMTQSPDSLAVSLGERATINCRASKTVDSYGNSFMHWYQQKPGQPPKLLIYHSSNLESGVPDRFSGSGSGTDFTLTISSLQAEDVAVYYCLQTIEFPYTFGQGTKLEIK |
